{"source": "patent US20160145321A1", "about": "(CRUCELL HOLLAND B V, published 2016)", "binders": {"B1": {"name": "CB058.1 (antibody, V domains shown)", "VH": "EVQLVESGGGLVQPGGSLRLSCVASGFTFSSYAMSWVRQAPGKGLEWVSAIRGSVDNTYYADSVKGRFTISRDNSKNTLYLQMNSLRVEDTAVYYCAKDPALYCSGETCFSDLTDWGQGTLVTVSS", "VL": "DIQMTQSPSSLSASVGDRVTITCRASQGINNYLAWFQQKPGKAPKSLIYAASTLPSGVPSRFSGSGSGTDFTLTISSLQPEDSATYFCQHYIRYPHTFGQGTKLEIK"}, "B2": {"name": "CB002.1 (antibody, V domains shown)", "VH": "QVQLQESGPRLVKPSETLSLTCTVSGGSTSSYFWNWIRQPPGKGLEWIGYIYGSGSADYNPSLKSRVTISIDTSKTQFSLKLTSVTAADTAVYYCARSGFCTNDACYRRGSWFDPWGQGTLVTVSS", "VL": "DIQMTQSPSSLSASVGDRVTITCRASQSIDNYLNWYQQKPGKAPKLLIYAASSLQSGVPSRFSGSGSGTDFTLTVSSLHPEDFATYYCQQSYSTLTWTFGQGTKVEIK", "notes": "also called CB2.1"}, "B3": {"name": "CB003.1 (antibody, V domains shown)", "VH": "QVQLVQSGPELRKPGASVTVSCKASGYTFTTYYIHWVRQAPGGGLDWMGMINTGSGVTSYAQKFQGRVAMTRDTSTSTVFMELSSLRFEDTALYYCARMYSGSWYPFDYWGQGALVTVSS", "VL": "EIVLTQSPGTLSLSPGERATLSCRASQNINGNYLAWYQQKPGLAPRLLIYEASSRATGIPDRFSGSGSGTDFTLTISSLEPEDFGVYYCQQYGTSPFFTFGPGTKVDIK"}, "B4": {"name": "CB028.2 (antibody, V domains shown)", "VH": "QVQLVQSGAEVKKPGASVKVSCKASGYTFTTYGITWVRQAPGQGLEWMGWISGDSDNTNYAQNLQGRVTLTTDISTRTAYMELRSLKPDDTAMYYCARALAKWYCSSSSCFCGGGSCYSDYWGQGTLVTVSS", "VL": "DIQMTQSPSSLSASVGDRVTITCRASQGMSNYLNWYQQKPGKAPELLIYAASTLQSGVPSRFSGSGSGTDFTLTINSLQPEDFATYFCQQSFSTPLTFGGGTKVEIK"}, "B5": {"name": "CB010.7 (antibody, V domains shown)", "VH": "QVQLVESGGGVVQPGRSLRLSCAASGFTFNTHGMHWVRQAPGKGLEWVAVMSYDGTKKYHADSVKGRFTISRDNSKNTLYLQMNSLRVEDTAIYYCAKVGELRSFDWLLADGTAYYYYGMDVWGQGTTVTVSS", "VL": "not shown"}, "B6": {"name": "CB048.3 (antibody, V domains shown)", "VH": "QVQLVESGGGVVQPGRSLRLSCAASGFTFSNHGMHWVRQAPGKGLEWVAVISYDGNKKYYADSVKGRFTVSRDNSKNTLSLQMDSLRAEDTAIYYCAKTTFYFDDSNYYEYLDYWGQGTLVTVSS", "VL": "DIQLTQSPSFLSASVGDRVTITCRASQGIRSYLAWYQQKPGKAPKLLIYAASTLQSGVPSRFSGGGSGTEFTLTISSLQPEDSATYYCQQLNTSPPYTFGQGTKLEIK"}}, "key": {"[1]": {"target": "T1, G protein of RSV A/A2 (virus, ATCC Cat. No. VR-1540) (Respiratory syncytial virus A/A2, UniProt P03423 1-298)", "T1 sequence": "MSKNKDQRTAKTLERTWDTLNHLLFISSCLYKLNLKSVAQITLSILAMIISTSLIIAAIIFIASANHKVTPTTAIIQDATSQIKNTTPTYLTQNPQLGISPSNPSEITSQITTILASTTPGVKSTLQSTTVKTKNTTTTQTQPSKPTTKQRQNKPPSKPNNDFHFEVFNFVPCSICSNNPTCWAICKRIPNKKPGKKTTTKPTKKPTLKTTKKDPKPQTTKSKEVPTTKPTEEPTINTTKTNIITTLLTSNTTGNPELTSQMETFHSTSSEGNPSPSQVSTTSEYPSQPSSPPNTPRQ", "assay": "cell-based or functional assay"}, "[2]": {"target": "T2, Recombinant RSV attachment protein (G protein) corresponding to RSV A/Long (Respiratory syncytial virus A/Long, UniProt P20895 65-298)", "T2 construct": "also called RSV Ga; Ga", "T2 sequence": "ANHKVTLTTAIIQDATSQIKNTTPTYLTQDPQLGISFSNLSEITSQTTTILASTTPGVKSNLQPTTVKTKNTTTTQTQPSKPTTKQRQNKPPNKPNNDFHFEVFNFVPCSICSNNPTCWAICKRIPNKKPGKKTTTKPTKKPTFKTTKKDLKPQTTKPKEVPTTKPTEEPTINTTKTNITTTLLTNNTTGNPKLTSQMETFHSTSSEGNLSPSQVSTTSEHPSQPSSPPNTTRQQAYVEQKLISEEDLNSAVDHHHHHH", "assay": "ELISA, coated recombinant protein (Example 6)"}, "[3]": {"target": "T3, Recombinant RSV attachment protein (G protein) corresponding to RSV B/B1 (Respiratory syncytial virus B/B1, UniProt O36633 65-299)", "T3 sequence": "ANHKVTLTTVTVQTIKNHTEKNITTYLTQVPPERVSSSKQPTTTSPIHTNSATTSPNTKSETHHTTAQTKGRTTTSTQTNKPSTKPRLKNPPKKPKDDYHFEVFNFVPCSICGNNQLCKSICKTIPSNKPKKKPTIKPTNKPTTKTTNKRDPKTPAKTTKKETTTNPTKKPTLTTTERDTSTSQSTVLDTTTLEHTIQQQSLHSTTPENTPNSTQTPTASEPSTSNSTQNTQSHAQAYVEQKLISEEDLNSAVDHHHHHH", "assay": "ELISA, coated recombinant protein (Example 6)"}, "[4]": {"target": "T4, G protein of RSV A/Long (virus, ATCC Cat. No. VR-26) (Respiratory syncytial virus A/Long, UniProt P20895 1-298)", "T4 sequence (looked up)": "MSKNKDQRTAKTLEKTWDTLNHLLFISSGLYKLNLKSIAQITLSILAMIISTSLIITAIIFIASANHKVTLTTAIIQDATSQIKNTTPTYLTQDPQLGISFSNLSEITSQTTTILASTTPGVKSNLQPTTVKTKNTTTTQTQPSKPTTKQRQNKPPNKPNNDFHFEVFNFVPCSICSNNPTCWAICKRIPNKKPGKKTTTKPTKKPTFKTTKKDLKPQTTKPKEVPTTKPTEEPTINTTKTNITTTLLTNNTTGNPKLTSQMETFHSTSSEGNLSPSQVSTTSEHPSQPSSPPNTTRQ", "assay": "cell-based or functional assay"}, "[5]": {"target": "T5, G protein of RSV B/18537 (virus, ATCC Cat. No. VR-1580) (Respiratory syncytial virus B/18537, UniProt P20896 1-292)", "T5 sequence": "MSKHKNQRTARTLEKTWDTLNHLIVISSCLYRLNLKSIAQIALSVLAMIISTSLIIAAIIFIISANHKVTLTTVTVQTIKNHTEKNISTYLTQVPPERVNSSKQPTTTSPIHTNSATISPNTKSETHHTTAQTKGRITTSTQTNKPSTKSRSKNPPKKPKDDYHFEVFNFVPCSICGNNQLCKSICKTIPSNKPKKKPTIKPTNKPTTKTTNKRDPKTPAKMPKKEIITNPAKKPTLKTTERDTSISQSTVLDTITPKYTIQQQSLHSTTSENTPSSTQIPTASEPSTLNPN", "assay": "cell-based or functional assay"}}, "data": [{"binder": "B1", "values": [{"measurement": "Neutralization IC50 (plaque reduction assay, Vero cells)", "setting": "[1]", "result": 0.0144, "unit": "µg/mL"}, {"measurement": "binding result", "setting": "[2]", "result": "binds"}, {"measurement": "binding result", "setting": "[3]", "result": "binds"}]}, {"binder": "B2", "values": [{"measurement": "Neutralization IC50 (plaque reduction assay, Vero cells)", "setting": "[1]", "result": 0.0355, "unit": "µg/mL"}, {"measurement": "binding result", "setting": "[2]", "result": "binds"}, {"measurement": "binding result", "setting": "[3]", "result": "binds"}]}, {"binder": "B3", "values": [{"measurement": "Neutralization IC50 (plaque reduction assay, Vero cells)", "setting": "[4]", "result": 0.016, "unit": "µg/mL"}, {"measurement": "Neutralization IC50 (plaque reduction assay, Vero cells)", "setting": "[5]", "result": 0.0246, "unit": "µg/mL"}, {"measurement": "Neutralization IC50 (plaque reduction assay, Vero cells)", "setting": "[1]", "result": 0.0315, "unit": "µg/mL"}]}, {"binder": "B4", "values": [{"measurement": "Neutralization IC50 (plaque reduction assay, Vero cells)", "setting": "[5]", "result": 0.0196, "unit": "µg/mL"}, {"measurement": "binding result", "setting": "[2]", "result": "binds"}, {"measurement": "binding result", "setting": "[3]", "result": "binds"}]}, {"binder": "B5", "values": [{"measurement": "Neutralization IC50 (plaque reduction assay, Vero cells)", "setting": "[4]", "result": 0.012, "unit": "µg/mL"}, {"measurement": "Neutralization IC50 (plaque reduction assay, Vero cells)", "setting": "[5]", "result": 0.0141, "unit": "µg/mL"}, {"measurement": "Neutralization IC50 (plaque reduction assay, Vero cells)", "setting": "[1]", "result": 0.0165, "unit": "µg/mL"}, {"measurement": "binding result", "setting": "[3]", "result": "binds"}]}, {"binder": "B6", "values": [{"measurement": "Neutralization IC50 (plaque reduction assay, Vero cells)", "setting": "[1]", "result": 0.0167, "unit": "µg/mL"}, {"measurement": "binding result", "setting": "[2]", "result": "binds"}, {"measurement": "binding result", "setting": "[3]", "result": "binds"}]}]}
